Results: patent publication US20180185510A1, “ANTIBODY DRUG CONJUGATES OF KINESIN SPINDEL PROTEIN (KSP) INHIBITORS WITH ANTI-B7H3-ANTIBODIES” (BAYER PHARMA AKTIENGESELLSCHAFT, priority 2015, published 2018)
Several values for one entry are separate records, joined by “and”; a condition that tells them apart may be missing. Identical values can stand only once.

target: T1, B7H3 on B7H3-positive human tumour cells (A498, MCF-7, Caki-2, 786-0) (human, UniProt Q5ZPR3 29-534); experiment: cell-based or functional assay
T1 sequence (looked up): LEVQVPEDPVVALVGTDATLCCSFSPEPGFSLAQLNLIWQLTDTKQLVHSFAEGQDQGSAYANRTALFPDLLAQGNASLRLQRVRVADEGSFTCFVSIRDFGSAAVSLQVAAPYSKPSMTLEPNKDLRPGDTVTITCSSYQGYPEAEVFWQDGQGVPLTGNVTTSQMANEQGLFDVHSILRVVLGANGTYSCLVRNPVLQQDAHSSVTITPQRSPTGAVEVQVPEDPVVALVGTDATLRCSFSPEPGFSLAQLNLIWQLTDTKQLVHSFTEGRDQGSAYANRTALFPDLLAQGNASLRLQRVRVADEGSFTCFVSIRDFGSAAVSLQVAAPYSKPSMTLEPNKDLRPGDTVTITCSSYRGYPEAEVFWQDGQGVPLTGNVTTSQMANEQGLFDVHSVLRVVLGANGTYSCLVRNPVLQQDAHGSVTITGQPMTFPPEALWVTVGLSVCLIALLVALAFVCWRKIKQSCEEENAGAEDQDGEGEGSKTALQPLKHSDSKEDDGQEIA

Binder | IC50 [M] CTG, A498 cells (B7H3-positive) | IC50 [M] CTG, MCF-7 cells (B7H3-positive) | IC50 [M] CTG, Caki-2 cells (B7H3-positive)
Example 173L1: anti-B7H3 AK1A (TPP-3803) coupled with Intermediate F173 (antibody, human IgG1, kappa, V domains shown, KSP inhibitor-linker (Intermediate F173) on cysteine residues of the partially reduced antibody, sites not given; drug/mAb ratio 3.4) VH: QVKLQQSGAELVKPGASVKLSCKASGYTFTNYDINWVRQRPEQGLEWIGWIFPGDGSTQYNEKFKGKATLTTDTSSSTAYMQLSRLTSEDSAVYFCARQTTATWFAYWGQGTTVTVSS VL: DIELTQSPTTLSVTPGDRVSLSCRASQSISDYLHWYQQKSHESPRLLIKYASQSISGIPSRFSGSGSGSDFTLSINSVEPEDVGVYYCQNGHSFPLTFGAGTKLELKR | 6e-07 M | 4.98e-09 M | 
Example 274L1: anti-B7H3 AK1A (TPP-3803) coupled with Intermediate F274 (antibody, human IgG1, kappa, V domains shown, KSP inhibitor-linker (Intermediate F274) on cysteine residues of the partially reduced antibody, sites not given; drug/mAb ratio 2.9) VH: QVKLQQSGAELVKPGASVKLSCKASGYTFTNYDINWVRQRPEQGLEWIGWIFPGDGSTQYNEKFKGKATLTTDTSSSTAYMQLSRLTSEDSAVYFCARQTTATWFAYWGQGTTVTVSS VL: DIELTQSPTTLSVTPGDRVSLSCRASQSISDYLHWYQQKSHESPRLLIKYASQSISGIPSRFSGSGSGSDFTLSINSVEPEDVGVYYCQNGHSFPLTFGAGTKLELKR |  | 1.86e-09 M | 
Example 240L1: anti-B7H3 AK1A (TPP-3803) coupled with Intermediate F240 (antibody, human IgG1, kappa, V domains shown, KSP inhibitor-linker (Intermediate F240) on cysteine residues of the partially reduced antibody, sites not given; drug/mAb ratio 2.7) VH: QVKLQQSGAELVKPGASVKLSCKASGYTFTNYDINWVRQRPEQGLEWIGWIFPGDGSTQYNEKFKGKATLTTDTSSSTAYMQLSRLTSEDSAVYFCARQTTATWFAYWGQGTTVTVSS VL: DIELTQSPTTLSVTPGDRVSLSCRASQSISDYLHWYQQKSHESPRLLIKYASQSISGIPSRFSGSGSGSDFTLSINSVEPEDVGVYYCQNGHSFPLTFGAGTKLELKR | 2.35e-09 M | 7.25e-10 M | 
Example 297L1 (Isomer 1): anti-B7H3 AK1A (TPP-3803) coupled with Intermediate F297 (antibody, human IgG1, kappa, V domains shown, KSP inhibitor-linker (Intermediate F297) on cysteine residues of the partially reduced antibody, sites not given; drug/mAb ratio 2.4) VH: QVKLQQSGAELVKPGASVKLSCKASGYTFTNYDINWVRQRPEQGLEWIGWIFPGDGSTQYNEKFKGKATLTTDTSSSTAYMQLSRLTSEDSAVYFCARQTTATWFAYWGQGTTVTVSS VL: DIELTQSPTTLSVTPGDRVSLSCRASQSISDYLHWYQQKSHESPRLLIKYASQSISGIPSRFSGSGSGSDFTLSINSVEPEDVGVYYCQNGHSFPLTFGAGTKLELKR |  | 8.93e-09 M | 
Example 259L1: anti-B7H3 AK1A (TPP-3803) coupled with Intermediate F259 (antibody, human IgG1, kappa, V domains shown, KSP inhibitor-linker (Intermediate F259) on cysteine residues of the partially reduced antibody, sites not given; drug/mAb ratio 3.0) VH: QVKLQQSGAELVKPGASVKLSCKASGYTFTNYDINWVRQRPEQGLEWIGWIFPGDGSTQYNEKFKGKATLTTDTSSSTAYMQLSRLTSEDSAVYFCARQTTATWFAYWGQGTTVTVSS VL: DIELTQSPTTLSVTPGDRVSLSCRASQSISDYLHWYQQKSHESPRLLIKYASQSISGIPSRFSGSGSGSDFTLSINSVEPEDVGVYYCQNGHSFPLTFGAGTKLELKR |  | 4.57e-09 M | 
Example 194: anti-B7H3 AK1A (TPP-3803) coupled with Intermediate F194 (antibody, human IgG1, kappa, V domains shown, KSP inhibitor-linker (Intermediate F194) on lysine residues, sites not given; drug/mAb ratio 2.4) VH: QVKLQQSGAELVKPGASVKLSCKASGYTFTNYDINWVRQRPEQGLEWIGWIFPGDGSTQYNEKFKGKATLTTDTSSSTAYMQLSRLTSEDSAVYFCARQTTATWFAYWGQGTTVTVSS VL: DIELTQSPTTLSVTPGDRVSLSCRASQSISDYLHWYQQKSHESPRLLIKYASQSISGIPSRFSGSGSGSDFTLSINSVEPEDVGVYYCQNGHSFPLTFGAGTKLELKR |  | 6.43e-10 M | 
Example 257L1: anti-B7H3 AK1A (TPP-3803) coupled with Intermediate F257 (antibody, human IgG1, kappa, V domains shown, KSP inhibitor-linker (Intermediate F257) on cysteine residues of the partially reduced antibody, sites not given; drug/mAb ratio 2.4) VH: QVKLQQSGAELVKPGASVKLSCKASGYTFTNYDINWVRQRPEQGLEWIGWIFPGDGSTQYNEKFKGKATLTTDTSSSTAYMQLSRLTSEDSAVYFCARQTTATWFAYWGQGTTVTVSS VL: DIELTQSPTTLSVTPGDRVSLSCRASQSISDYLHWYQQKSHESPRLLIKYASQSISGIPSRFSGSGSGSDFTLSINSVEPEDVGVYYCQNGHSFPLTFGAGTKLELKR |  | 4.49e-10 M | 
Example 270L1: anti-B7H3 AK1A (TPP-3803) coupled with Intermediate F270 (antibody, human IgG1, kappa, V domains shown, KSP inhibitor-linker (Intermediate F270) on cysteine residues of the partially reduced antibody, sites not given; drug/mAb ratio 2.8) VH: QVKLQQSGAELVKPGASVKLSCKASGYTFTNYDINWVRQRPEQGLEWIGWIFPGDGSTQYNEKFKGKATLTTDTSSSTAYMQLSRLTSEDSAVYFCARQTTATWFAYWGQGTTVTVSS VL: DIELTQSPTTLSVTPGDRVSLSCRASQSISDYLHWYQQKSHESPRLLIKYASQSISGIPSRFSGSGSGSDFTLSINSVEPEDVGVYYCQNGHSFPLTFGAGTKLELKR | 6e-07 M | 7e-08 M | 
Example 257L2: anti-B7H3 AK1B (TPP-5706) coupled with Intermediate F257 (antibody, human IgG1, kappa, V domains shown, KSP inhibitor-linker (Intermediate F257) on cysteine residues of the partially reduced antibody, sites not given; drug/mAb ratio 4.5) VH: QVQLQQPGAELVKPGASVKMSCKASGYTFTIYNVHWIKQTPGQGLEWMGTIFPGNGDTSYNQKFKDKATLTTDKSSKTAYMQLNSLTSEDSAVYYCARWDDGNVGFAHWGQGTLVTVSA VL: DIQMTQSPASLSASVGETVTITCRASENINNYLTWFQQKQGKSPQLLVYHAKTLAEGVPSRFSGSGSGTQFSLKINSLQPEDFGSYYCQHHYGTPPTFGGGTKLEIKR | 1.16e-10 M and 1.37e-10 M | 7.37e-11 M and 8.63e-11 M | 1.5e-11 M and < 3e-11 M
Example 240L2: anti-B7H3 AK1B (TPP-5706) coupled with Intermediate F240 (antibody, human IgG1, kappa, V domains shown, KSP inhibitor-linker (Intermediate F240) on cysteine residues of the partially reduced antibody, sites not given; drug/mAb ratio 3.5) VH: QVQLQQPGAELVKPGASVKMSCKASGYTFTIYNVHWIKQTPGQGLEWMGTIFPGNGDTSYNQKFKDKATLTTDKSSKTAYMQLNSLTSEDSAVYYCARWDDGNVGFAHWGQGTLVTVSA VL: DIQMTQSPASLSASVGETVTITCRASENINNYLTWFQQKQGKSPQLLVYHAKTLAEGVPSRFSGSGSGTQFSLKINSLQPEDFGSYYCQHHYGTPPTFGGGTKLEIKR | 7.49e-10 M | 1.58e-10 M | > 3e-07 M
Example 281L2: anti-B7H3 AK1B (TPP-5706) coupled with Intermediate F281 (antibody, human IgG1, kappa, V domains shown, KSP inhibitor-linker (Intermediate F281) on cysteine residues of the partially reduced antibody, sites not given; drug/mAb ratio 2.4) VH: QVQLQQPGAELVKPGASVKMSCKASGYTFTIYNVHWIKQTPGQGLEWMGTIFPGNGDTSYNQKFKDKATLTTDKSSKTAYMQLNSLTSEDSAVYYCARWDDGNVGFAHWGQGTLVTVSA VL: DIQMTQSPASLSASVGETVTITCRASENINNYLTWFQQKQGKSPQLLVYHAKTLAEGVPSRFSGSGSGTQFSLKINSLQPEDFGSYYCQHHYGTPPTFGGGTKLEIKR | 1.39e-08 M | 3.42e-08 M | 5.26e-09 M
Example 208L2: anti-B7H3 AK1B (TPP-5706) coupled with Intermediate F104 (stirred at pH 8 overnight) (antibody, human IgG1, kappa, V domains shown, KSP inhibitor-linker (Intermediate F104) on cysteine residues of the partially reduced antibody, sites not given; drug/mAb ratio 2.9) VH: QVQLQQPGAELVKPGASVKMSCKASGYTFTIYNVHWIKQTPGQGLEWMGTIFPGNGDTSYNQKFKDKATLTTDKSSKTAYMQLNSLTSEDSAVYYCARWDDGNVGFAHWGQGTLVTVSA VL: DIQMTQSPASLSASVGETVTITCRASENINNYLTWFQQKQGKSPQLLVYHAKTLAEGVPSRFSGSGSGTQFSLKINSLQPEDFGSYYCQHHYGTPPTFGGGTKLEIKR |  | 2.42e-10 M | 5.99e-09 M
Example 275L2: anti-B7H3 AK1B (TPP-5706) coupled with Intermediate F275 (antibody, human IgG1, kappa, V domains shown, KSP inhibitor-linker (Intermediate F275) on cysteine residues of the partially reduced antibody, sites not given; drug/mAb ratio 3.8) VH: QVQLQQPGAELVKPGASVKMSCKASGYTFTIYNVHWIKQTPGQGLEWMGTIFPGNGDTSYNQKFKDKATLTTDKSSKTAYMQLNSLTSEDSAVYYCARWDDGNVGFAHWGQGTLVTVSA VL: DIQMTQSPASLSASVGETVTITCRASENINNYLTWFQQKQGKSPQLLVYHAKTLAEGVPSRFSGSGSGTQFSLKINSLQPEDFGSYYCQHHYGTPPTFGGGTKLEIKR | > 3e-07 M | 9.15e-11 M | > 3e-07 M
Example 297L2 (Isomer 1): anti-B7H3 AK1B (TPP-5706) coupled with Intermediate F297 (antibody, human IgG1, kappa, V domains shown, KSP inhibitor-linker (Intermediate F297) on cysteine residues of the partially reduced antibody, sites not given; drug/mAb ratio 3.1) VH: QVQLQQPGAELVKPGASVKMSCKASGYTFTIYNVHWIKQTPGQGLEWMGTIFPGNGDTSYNQKFKDKATLTTDKSSKTAYMQLNSLTSEDSAVYYCARWDDGNVGFAHWGQGTLVTVSA VL: DIQMTQSPASLSASVGETVTITCRASENINNYLTWFQQKQGKSPQLLVYHAKTLAEGVPSRFSGSGSGTQFSLKINSLQPEDFGSYYCQHHYGTPPTFGGGTKLEIKR | > 3e-07 M | 7.56e-10 M | > 3e-07 M
Example 284L2: anti-B7H3 AK1B (TPP-5706) coupled with Intermediate F284 (antibody, human IgG1, kappa, V domains shown, KSP inhibitor-linker (Intermediate F284) on cysteine residues of the partially reduced antibody, sites not given; drug/mAb ratio 3.0) VH: QVQLQQPGAELVKPGASVKMSCKASGYTFTIYNVHWIKQTPGQGLEWMGTIFPGNGDTSYNQKFKDKATLTTDKSSKTAYMQLNSLTSEDSAVYYCARWDDGNVGFAHWGQGTLVTVSA VL: DIQMTQSPASLSASVGETVTITCRASENINNYLTWFQQKQGKSPQLLVYHAKTLAEGVPSRFSGSGSGTQFSLKINSLQPEDFGSYYCQHHYGTPPTFGGGTKLEIKR |  | 7.02e-10 M | 
Example 194L2: anti-B7H3 AK1B (TPP-5706) coupled with Intermediate F194 (antibody, human IgG1, kappa, V domains shown, KSP inhibitor-linker (Intermediate F194) on lysine residues, sites not given; drug/mAb ratio 2.9) VH: QVQLQQPGAELVKPGASVKMSCKASGYTFTIYNVHWIKQTPGQGLEWMGTIFPGNGDTSYNQKFKDKATLTTDKSSKTAYMQLNSLTSEDSAVYYCARWDDGNVGFAHWGQGTLVTVSA VL: DIQMTQSPASLSASVGETVTITCRASENINNYLTWFQQKQGKSPQLLVYHAKTLAEGVPSRFSGSGSGTQFSLKINSLQPEDFGSYYCQHHYGTPPTFGGGTKLEIKR | 3.57e-10 M | 2.08e-10 M | 2.75e-10 M
Example 296L2: anti-B7H3 AK1B (TPP-5706) coupled with Intermediate F296 (antibody, human IgG1, kappa, V domains shown, KSP inhibitor-linker (Intermediate F296) on cysteine residues of the partially reduced antibody, sites not given; drug/mAb ratio 3.2) VH: QVQLQQPGAELVKPGASVKMSCKASGYTFTIYNVHWIKQTPGQGLEWMGTIFPGNGDTSYNQKFKDKATLTTDKSSKTAYMQLNSLTSEDSAVYYCARWDDGNVGFAHWGQGTLVTVSA VL: DIQMTQSPASLSASVGETVTITCRASENINNYLTWFQQKQGKSPQLLVYHAKTLAEGVPSRFSGSGSGTQFSLKINSLQPEDFGSYYCQHHYGTPPTFGGGTKLEIKR | 6.22e-10 M | 1.63e-10 M | > 3e-07 M
